Columns and labels:
Test in all cases: Crosslinking/co-immunoprecipitation/mass spectrometry (TMT quantitative proteomics) to identify irisin receptors
Assay type in all cases: binding
[1] = biological target: T1, MLO-Y4 cell surface proteins (Mus musculus, UniProt P16675); conditions: co-precipitated protein Ctsa (PPGB_MOUSE)
T1 construct: endogenous in cells; host or cells: MLO-Y4
T1 sequence (P16675 24-474): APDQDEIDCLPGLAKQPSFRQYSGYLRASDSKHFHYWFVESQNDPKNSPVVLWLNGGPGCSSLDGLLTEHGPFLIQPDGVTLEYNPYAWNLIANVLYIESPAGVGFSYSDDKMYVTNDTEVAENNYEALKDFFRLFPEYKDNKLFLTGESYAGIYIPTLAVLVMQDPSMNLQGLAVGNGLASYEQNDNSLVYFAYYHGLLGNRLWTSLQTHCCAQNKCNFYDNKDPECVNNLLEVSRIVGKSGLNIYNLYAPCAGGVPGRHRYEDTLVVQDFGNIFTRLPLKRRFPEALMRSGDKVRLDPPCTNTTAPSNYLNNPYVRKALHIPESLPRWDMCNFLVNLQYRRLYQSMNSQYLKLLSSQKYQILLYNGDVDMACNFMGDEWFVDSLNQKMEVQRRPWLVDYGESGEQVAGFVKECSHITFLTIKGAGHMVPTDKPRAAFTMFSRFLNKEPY
In short: (§1)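 Relative protein abundance came from 6-plex TMT MS3 quantitation on an Orbitrap Fusion Lumos, after in-gel trypsin digestion of Coomassie-stained SDS-PAGE lanes. Input was a Ni-NTA pulldown (250 mM imidazole elution) of lysates from murine MLO-Y4 cells. These cells were treated on ice with His-tagged irisin or adipsin (10 nM, 20 min) in serum-free medium, then crosslinked with 1.5 mM DTSSP for 30 min.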

[2] = biological target: T2, MLO-Y4 cell surface proteins (Mus musculus, UniProt Q8K221); conditions: co-precipitated protein Arfip2 (ARFP2_MOUSE)
T2 construct: endogenous in cells; host or cells: MLO-Y4
T2 sequence (Q8K221 1-341): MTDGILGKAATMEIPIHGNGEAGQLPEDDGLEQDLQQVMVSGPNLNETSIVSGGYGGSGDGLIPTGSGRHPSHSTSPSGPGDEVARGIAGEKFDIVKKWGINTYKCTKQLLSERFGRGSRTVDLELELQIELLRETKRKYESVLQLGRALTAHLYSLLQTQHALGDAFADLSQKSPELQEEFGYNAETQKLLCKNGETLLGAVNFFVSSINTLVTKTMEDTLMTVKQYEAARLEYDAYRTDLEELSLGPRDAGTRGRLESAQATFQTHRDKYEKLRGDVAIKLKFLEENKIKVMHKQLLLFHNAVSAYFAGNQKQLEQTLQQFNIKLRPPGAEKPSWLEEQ
In short: as §1

[3] = biological target: T3, MLO-Y4 cell surface proteins (Mus musculus, UniProt Q921N7); conditions: co-precipitated protein Tmem70 (TMM70_MOUSE)
T3 construct: endogenous in cells; host or cells: MLO-Y4
T3 sequence (Q921N7 78-253): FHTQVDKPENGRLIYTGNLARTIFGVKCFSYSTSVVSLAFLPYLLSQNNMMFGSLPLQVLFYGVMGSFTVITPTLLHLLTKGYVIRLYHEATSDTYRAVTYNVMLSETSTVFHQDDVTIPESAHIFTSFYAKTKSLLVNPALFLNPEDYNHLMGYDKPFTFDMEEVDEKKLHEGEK
In short: as §1

TMT signal-to-noise ratio [1]: 357.95
TMT signal-to-noise ratio [2]: 1092.57
TMT signal-to-noise ratio [3]: 88.4078
Substance: adipsin

Source: patent US20210063414A1, “METHODS FOR PREVENTING AND/OR TREATING BONE LOSS CONDITIONS BY MODULATING IRISIN” (Dana-Farber Cancer Institute, Inc., priority 2018, published 2021)
